# Reference: the nanobody polyreactivity screen of Harvey et al. (2022)
# Assay: yeast display, Sf9 membrane polyspecificity reagent, FACS + sequencing; frameworks hold sequencing errors
# Summary of the method: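 In a synthetic yeast display library (Saccharomyces cerevisiae BJ5465), nanobody expression was induced with galactose for 36–48 hours. FACS gates were set low and high (top ~1%) using anti-HA fluorescence for expression and streptavidin fluorescence for binding of the Sf9 membrane reagent. Each polyreactivity label is drawn from the gate of origin.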
row,Sequence,polyreactivity (PSR sort gate)
1,QVQLVESGGGLVQAGGSLRLSCAASGSTFGFYAMGWYRQAPGKERELVAAISVSGGSTYYADSVKGRFTISRDNAKNTVYLQMNSLNPEDTGVYYCNKVWRPRYYWGLGTQVTVSS,high polyreactivity
2,QVQLVESGGGLVQAGGSLRLSCAASGSTFGFYTMGWYRPAPGKERELVAAISWSTGRTYYADSVKGRFTISRDNAKNTVYLQMNSLKPEDTAVYYCAARAVDKYRFGGRYDYWGQGTQVTVSS,low polyreactivity
3,QVQLVESGGGLVQAGGSLRLSCAASGSTFGGNAMGWYRKAPGKERELVAVISKRGGSTYYADSVKGRFTISRDNAKNTVYLQMNSLKPEDTAVYYCAATYSRYWSPTYDYWGQGTQVTVSS,high polyreactivity
4,QVQLVESGGGLVQAGGSLRLSCAASGSTFGGNAMGWYRPAPGKERELVAGITTGGTTNYADSVKGRFTISRDNAKNTVYLQMISLIPEDTAVYYCAAGPSSSLTLYDYWGQGTQVTVSS,low polyreactivity
5,QVQLVESGGGLVQAGGSLRLSCAASGSTFGGNAMGWYRQAPGKERELVAAISSGDSTTYADSVKGRFTISRDNAKNTVYLQMNSLKPEDTAVYYSNRSPKSGQVTYLYSVNAHYDYWGQGTQVTVSS,low polyreactivity
6,QVQLVESGGGLVQAGGSLRLSCAASGSTFGGYAMGWYRQAPGKEREFVAAISWRGGGTYYADSVKGRFTISRDNAMNTVYLQMNSLKPEDTAVYYCAAERRYTYQYNYWGQGTQVTVSS,high polyreactivity
7,QVQLVESGGGLVQAGGSLRLSCAASGSTFGGYAMGWYRQAPGKERELVAAISQSGTRSYYADSVKGRFTISRDNAKNTVYLQMNSLKPEDTAVYYCAAEKRFRKYDYWGQGTQVTVSS,high polyreactivity
8,QVQLVESGGGLVQAGGSLRLSCAASGSTFGGYAMGWYRQAPGKERELVAGISSGTSTYYADSVKGRFTISRDNAKNTVYLQMNSLKPEDTAVYYCAKYSYYRKLGYWGQGTQVTVSS,high polyreactivity
9,QVQLVESGGGLVQAGGSLRLSCAASGSTFGGYAMGWYRQAPGKERELVATINYSDGSTYYADSVKGRFTISRDNAKNTVYLQMNSLKPEDTAVYYCAKRFGSGWAWFGYWGQGTQVTVSS,low polyreactivity
10,QVQLVESGGGLVQAGGSLRLSCAASGSTFGGYAMGWYRQAPGKERELVATITGGGSTNYADSVKGRFTISRDNAKNTVYLQMNSLKPEDTAVYYCAATEKYQYKVFYDPVGAYDYWGQGTQVTVSS,low polyreactivity
11,QVQLVESGGGLVQAGGSLRLSCAASGSTFGGYTMGWYRQAPGKERELVAAITSGGGRTYYADSVKGRFTISRDNSKNTVYLQMNSLKPEDTAVYYCATGYKGLYWKYDYWGQGTLVTVSS,high polyreactivity
12,QVQLVESGGGLVQAGGSLRLSCAASGSTFGHNAMGWYRQATGKERELVAAISKSGGRTYYADSVKGRFTISRDNAKNTVYLQMNSLKPEDTAVYYCAKDGVVGSGTLNIYDYWGQGTQVTVSS,low polyreactivity
13,QVQLVESGGGLVQAGGSLRLSCAASGSTFGHYAMGCYRQAPGKERDLVAAISWSGASTYYADSVKGRFTISRDNAKNTVYLQMNSLKPEDTAVYYCAAESYRQTYYVGDGYEDDYWGQGTQVTVSS,low polyreactivity
14,QVQLVESGGGLVQAGGSLRLSCAASGSTFGHYAMGRYRQAPGKESELVSAISTSGGRTYYADSVKGRFTISRDNAKNTVYLQMNSLKPEDTAVYYCATRRYGVDKFDYWGQGTQVTVSS,high polyreactivity
15,QVQLVESGGGLVQAGGSLRLSCAASGSTFGKYAMGWYRQAPGKERELVAAITESDSSTYYADSVKGRFTLSRDNAKNTVYLQMNSLKPEDTAVDYCAADSLYSYPWSTYFYGGDYWGQGTQVTVSS,low polyreactivity
16,QVQLVESGGGLVQAGGSLRLSCAASGSTFGLNVMGWYRQAPGKEREFVAGISRSGGRTYYADSVKGRFTISRDNAKNTVYLQMNSLKPADTAVYYCAADYWTGITPDAIGDYWGQGTQVTVSS,low polyreactivity
17,QVQLVESGGGLVQAGGSLRLSCAASGSTFGLYAMGWYRQAPGKERELVAAITIRGGSTYYADSVKGRFTISRDNAKNTVYLQMNSLKPEDTAVYYCAADYWYGGFEYWGQGTQVTVSS,low polyreactivity
18,QVQLVESGGGLVQAGGSLRLSCAASGSTFGNYAMGWYRQAPGKEMELVAAISTSGDSTYYADSVKGRFTISRDNAKYTVYLQMNSLKPEDSAVYYCKARGIATGNRHEYWGQGTQVTVSS,low polyreactivity
19,QVQLVESGGGLVQAGGSLRLSCAASGSTFGNYAMGWYRQAPGKERELVAAIRSRGGRTYYADSVKGRFTISRDYAKNTVYLQMNSLKPVDTAVYYCARDSRTGYYYWGQGTQVTVSS,high polyreactivity
20,QVQLVESGGGLVQAGGSLRLSCAASGSTFGNYAMGWYRQAPGKERELVAAISVGDGSTYYADSVKGRFTISRDNAKNTVYLQMNSLKPEDTAFYYCAADFVYPSWHYDYWGQGTQVTVSS,high polyreactivity
21,QVQLVESGGGLVQAGGSLRLSCAASGSTFGNYAMGWYRQAPGKERELVATISRSGGSTYYADSVQGRFTISRDIAKNTVNLQMNSLKPEDTAVYYCNRRYYTRKPDYNSWGQGTQVTVSS,high polyreactivity
22,QVQLVESGGGLVQAGGSLRLSCAASGSTFGPNAMGWYRQAPGKERELVAAIRSNGGRTYYADSVKGRFTISRDNAKITVYLQMNSLKPEDSAVYYCADPHYPYDTPYGYWGQGTQVTVSS,low polyreactivity
